We go through one substance from doi:10.1101/2023.05.26.542399.

In the test the target is Arabidopsis thaliana PAXX (AtPAXX), full length, untagged (Arabidopsis thaliana). The experiment in a line: crystal structure.

As to “Arabidopsis thaliana PAXX (AtPAXX), full length, untagged (natural protein)”, the stoichiometry N came out at 2.
